Assay results: article PMC6140506 (Proceedings of the National Academy of Sciences of the …, 2018)
Where two headings read alike, the source gives them in different places.

B1: 102.1F10 IgE (antibody, V domains shown)
VH: QVQLVQSGAEVRNPGASVKVSCKASGYTFTSYAIHWVRQAPGHRLEWVGRINTDNGNTKYSQKFHGRVALSRDTSASTTYMDLSSLNSEDTAVYYCARAFYYSSGVMFDSWGQGALVTVSS
VL: QSALTQPPSVSGAPGQRVSISCTGGSSNFGAGYDVHWYQQLPATAPKLLIYGNNNRPSGVPDRFSGSKSGTSASLAITGLQAEDEGDYFCQSFDTSLSGWIFGGGTKLTVL
B2: 102.1F10 Fab (Fab, V domains shown)
VH: QVQLVQSGAEVRNPGASVKVSCKASGYTFTSYAIHWVRQAPGHRLEWVGRINTDNGNTKYSQKFHGRVALSRDTSASTTYMDLSSLNSEDTAVYYCARAFYYSSGVMFDSWGQGALVTVSS
VL: QSALTQPPSVSGAPGQRVSISCTGGSSNFGAGYDVHWYQQLPATAPKLLIYGNNNRPSGVPDRFSGSKSGTSASLAITGLQAEDEGDYFCQSFDTSLSGWIFGGGTKLTVL

How the values were obtained:
Assay in all cases: SPR
Phl p 7 wild-type = Phl p 7 wild-type (Timothy grass, UniProt O82040)
Sequence of Phl p 7 wild-type (O82040 whole entry): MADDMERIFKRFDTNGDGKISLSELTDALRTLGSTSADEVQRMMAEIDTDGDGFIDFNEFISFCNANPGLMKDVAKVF

Ole e 3 [1] = biological target: T1, Ole e 3 (Olea europaea (common olive), UniProt O81092)
Bet v 4 [2] = biological target: Bet v 4 (UniProt Q39419)
Sequence of Bet v 4 (Q39419 whole entry): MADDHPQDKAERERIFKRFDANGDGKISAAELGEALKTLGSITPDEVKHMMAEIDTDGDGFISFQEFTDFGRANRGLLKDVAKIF

Ole e 3 [3] = biological target: T1, Ole e 3; remark: listed apart in the source
Bet v 4 [4] = biological target: Bet v 4 (UniProt Q39419); remark: listed apart in the source

Binder	Kd (Phl p 7 wild-type)	binding result (Ole e 3 [1])	fold weaker binding than Phl p 7 (Bet v 4 [2])	binding result (Ole e 3 [3])	fold weaker binding than Phl p 7 (Bet v 4 [4])
B1	0.17 nM	binds	1000 fold		
B2				binds	1000 fold
